The results in this text go back to PMC10218236, “Structural Optimization and Interaction Study of a DNA Aptamer to L1 Cell Adhesion Molecule”.

In this series the target is L1CAM protein (Sino Biological) (UniProt P32004 20-1120). The experiment in a line: DMS footprinting; 100 nM DNA, 300 nM L1CAM; PBS, 4.5 g/L glucose, 5 mM MgCl2, 1 mg/mL BSA, 0.1 mg/mL herring sperm DNA; 30 min at 4 °C (or 25/37 °C); pH not stated. The conditions noted are these: protein: commercial; label: FAM (3' FAM in DMS footprinting); hairpin, two stems, two loops, T bulge in stem I.
Sequence of L1CAM protein (Sino Biological) (P32004 20-1120): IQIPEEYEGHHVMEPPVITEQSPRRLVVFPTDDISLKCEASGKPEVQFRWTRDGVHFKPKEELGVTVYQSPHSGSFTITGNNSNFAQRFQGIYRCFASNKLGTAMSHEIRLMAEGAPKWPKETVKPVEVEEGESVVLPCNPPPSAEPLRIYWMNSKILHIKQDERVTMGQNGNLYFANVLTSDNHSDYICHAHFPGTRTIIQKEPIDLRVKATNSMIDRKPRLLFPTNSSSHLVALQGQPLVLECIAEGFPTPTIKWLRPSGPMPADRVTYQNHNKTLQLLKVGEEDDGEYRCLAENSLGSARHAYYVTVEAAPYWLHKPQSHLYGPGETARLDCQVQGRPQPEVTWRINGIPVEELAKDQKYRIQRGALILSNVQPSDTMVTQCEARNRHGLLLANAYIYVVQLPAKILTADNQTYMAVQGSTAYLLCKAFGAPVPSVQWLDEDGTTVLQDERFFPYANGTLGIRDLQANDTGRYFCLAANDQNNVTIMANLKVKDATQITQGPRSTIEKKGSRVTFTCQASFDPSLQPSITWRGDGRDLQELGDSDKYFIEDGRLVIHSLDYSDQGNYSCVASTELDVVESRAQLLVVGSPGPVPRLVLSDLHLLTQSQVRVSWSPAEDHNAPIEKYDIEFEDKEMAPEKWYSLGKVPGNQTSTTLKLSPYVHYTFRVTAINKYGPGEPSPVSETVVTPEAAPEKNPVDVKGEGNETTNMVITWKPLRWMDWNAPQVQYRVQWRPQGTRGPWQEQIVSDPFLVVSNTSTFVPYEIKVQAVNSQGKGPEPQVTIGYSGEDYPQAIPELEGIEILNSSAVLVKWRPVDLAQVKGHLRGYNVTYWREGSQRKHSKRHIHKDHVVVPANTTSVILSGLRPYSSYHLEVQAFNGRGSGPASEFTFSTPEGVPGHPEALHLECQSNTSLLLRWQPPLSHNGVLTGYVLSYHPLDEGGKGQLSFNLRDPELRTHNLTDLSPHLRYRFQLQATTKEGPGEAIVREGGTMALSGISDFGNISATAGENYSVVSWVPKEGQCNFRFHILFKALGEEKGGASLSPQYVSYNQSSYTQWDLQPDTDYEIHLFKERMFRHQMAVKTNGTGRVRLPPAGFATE

B1: yly20 (ssDNA)
DNA: CAGATAGGGGGTAGCTCGGTCGTGTTTTTGGGTTGTTTGGTGGGTCTTCTG
Take B1: the binding result was “binds”.
